According to PMC2935968, “Structural Basis for Assembly of Hsp90-Sgt1-CHORD Protein Complexes: Implications for Chaperoning of NLR Innate Immunity Receptors” (Molecular Cell, 2010):

T1: GST-Rar1 (wild type) (Arabidopsis thaliana, UniProt Q9SE33 1-226)
T1 construct: Rar1, Arabidopsis thaliana, wild type; Construct details are in the Supplemental Information; also called Wild-type GST-Rar1; GST-tagged Rar1
T1 sequence (looked up): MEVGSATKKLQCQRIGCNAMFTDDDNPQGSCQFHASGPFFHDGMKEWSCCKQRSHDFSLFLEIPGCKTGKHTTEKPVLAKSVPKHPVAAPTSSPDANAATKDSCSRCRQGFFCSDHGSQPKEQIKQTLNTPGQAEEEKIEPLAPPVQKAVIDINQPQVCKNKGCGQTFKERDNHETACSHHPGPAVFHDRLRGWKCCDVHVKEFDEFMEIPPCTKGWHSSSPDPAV

B1: CS domain of cress (Arabidopsis thaliana) Sgt1a (domain or fragment)
chain: AKYRHEYYQKPEEVVVTVFAKGIPKQNVNIDFGEQILSVVIEVPGEDAYYLQPRLFGKIIPDKCKYEVLSTKIEICLAKADIITWASLEHGK
notes: Sgt1a, Arabidopsis thaliana, CS domain; construct as described previously (Boter et al., 2007; Zhang et al., 2008); also called Sgt1-CS; Sgt-CS
B2: CHORDII domain of cress (Arabidopsis thaliana) Rar1 (domain or fragment)
chain: AVIDINQPQVCKNKGCGQTFKERDNHETACSHHPGPAVFHDRLRGWKCCDVHVKEFDEFMEIPPCTKGWHSSS
notes: Rar1, Arabidopsis thaliana, CHORDII domain; also called Rar1-CHORDII; isolated CHORDII
B3: Rar1 (wild type, not GST-tagged) (natural protein, Arabidopsis thaliana, UniProt Q9SE33 1-226, looked up)
chain: T1 sequence (looked up)

Key:
GST-Rar1 (wild type) = target: T1, GST-Rar1 (wild type); experiment: pull-down; GST-Rar1 as bait, Hsp90, untagged Rar1 and Sgt1-CS present; conditions: both partners purified
[1] = target: B1; experiment: ITC; Rar1-CHORDII with Sgt1-CS (Figure S2C); conditions not shown; conditions: both partners purified
Hsp90 = Hsp90 ( (Arabidopsis, H. vulgare or …, UniProt Q7XJ80 1-700)); experiment: cell-based or functional assay
Chain of Hsp90 ( (Q7XJ80 entry or part of it): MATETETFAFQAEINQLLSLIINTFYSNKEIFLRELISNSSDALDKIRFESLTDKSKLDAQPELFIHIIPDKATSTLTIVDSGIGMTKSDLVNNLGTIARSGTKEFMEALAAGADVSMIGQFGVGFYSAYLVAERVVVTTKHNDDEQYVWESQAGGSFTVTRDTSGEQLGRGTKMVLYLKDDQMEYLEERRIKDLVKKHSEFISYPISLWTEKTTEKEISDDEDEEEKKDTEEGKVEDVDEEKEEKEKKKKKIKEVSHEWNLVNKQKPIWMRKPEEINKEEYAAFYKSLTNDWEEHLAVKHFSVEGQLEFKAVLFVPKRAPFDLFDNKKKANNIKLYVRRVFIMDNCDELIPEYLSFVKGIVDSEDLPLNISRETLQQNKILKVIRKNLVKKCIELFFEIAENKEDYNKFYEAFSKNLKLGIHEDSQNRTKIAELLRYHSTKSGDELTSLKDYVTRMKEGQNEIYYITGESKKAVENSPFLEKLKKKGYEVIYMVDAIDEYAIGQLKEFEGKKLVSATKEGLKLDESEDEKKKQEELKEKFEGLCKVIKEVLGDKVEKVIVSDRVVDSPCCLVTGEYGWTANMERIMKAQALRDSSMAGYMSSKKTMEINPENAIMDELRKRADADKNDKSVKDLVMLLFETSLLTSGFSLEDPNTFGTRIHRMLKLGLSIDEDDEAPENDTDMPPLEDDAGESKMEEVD

Binder: B1
binding result (GST-Rar1 (wild type)): binds

Binder: B2
Kd [1]: 3.09 ± 0.15 µM

Binder: B3
ATP turnover of Ta-Hsp90 with increasing concentrations of Rar1 (up to 20-fold excess) (Hsp90): 2 fold
